This passage reports amyloid nucleation score results from the supplement of paper PMC12042874.

This data set is described as follows: amyloid nucleation score (Sup35N fusion, yeast selection) (log enrichment); library NNK2; higher = more nucleation; inactive = no reads after selection. The essentials: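 Growth for 7 days at 30°C on medium lacking adenine and uracil followed a 24-hour induction with 100 μM copper sulfate of psi-negative yeast expressing peptides of 20 random codons fused to Sup35N. Input and output plasmid inserts were sequenced with Illumina, and sequences with under 100 input reads were excluded. Nucleation score is the DiMSum log enrichment of output over input reads, centred on the mode score of non-aggregating sequences.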

± gives the uncertainty stated by the source.

As for NGTSLTMTYIRKLAFRGLEK, the amyloid nucleation score was determined as 0.215 ± 0.26.
In the case of DAVMVWVGDV it was 0.179 ± 0.17.
VIGASRRVWHRLKHKA: the amyloid nucleation score was found to be 0.994 ± 0.34.
With CIELLYEYAIDLQAWVLLER, the amyloid nucleation score came to 0.389 ± 0.66.
In the case of TVTVDIFSKEWTGGTNFCDI it was -0.179 ± 0.76.
In the case of SGWWTKHRTMLKYYTLFAMG it was -0.449 ± 0.44; in that of VVWARYSVNLWMNLGSQASF, 4.01 ± 0.1; in that of LQSTILIYVVNFFTTGIMGK, 1.75 ± 0.11.
In the case of IIHAFHMSGPLLRAQVS it was -0.308 ± 0.38; in that of IPTSYSRPITIWGYR, -1.3 ± 0.64; in that of SNFVQSGG, 0.138 ± 0.46.
FNTRMSIKSGNMTWSNYYWF had an amyloid nucleation score of 5.771 ± 0.053.
Substance SVCGLWWLSHSVQRWSEWYS gave an amyloid nucleation score of 5.99 ± 0.067.
In the case of TGTFRIAWM it was 6.64 ± 0.063.
In the case of RPISLCALYWLNLRANIHCR it was 0.144 ± 0.56; in that of YMWVCACRMSLIHGLSGHHD, 0.536 ± 0.46.
To PSMIYFYRGSSLFASWGFLI belongs “inactive”; to SAGHSKGLQDVAPPRIFMVS, “inactive”; to YVNPKVAWAGIDSAAEEDSD, 0.047 ± 0.49.
The substance YGAYVYINSFCKYNIIRSRS gave an amyloid nucleation score of 6.034 ± 0.043.
To DYYRPIIGH belongs -0.407 ± 0.28; to WRAKAFSEKFIERRWDVGMN, -1.18 ± 0.62.
As for QLGIGFFGRKWDGHL, the amyloid nucleation score turned out to be 2.79 ± 0.16.
To PLMSLLPPPNTR belongs -0.935 ± 0.44; to PPRGRTAINMTSKCQARVRP, 0.966 ± 0.3.
In the case of LWFGRSCGFGIGVYYRRPSL it was -0.213 ± 0.48; in that of VVWSN, 0.845 ± 0.29.
To CLSCANL belongs 0.486 ± 0.66.
The substance GSMITCFVSDTLYKTVMVKL had an amyloid nucleation score of 0.373 ± 0.54.
In the case of RSPMWLAGLMNIYSP it was 2.87 ± 0.084.
To DYSSVVYNDGIWKGAPNFK belongs -2.05 ± 0.78; to VREYQSWPKGCCT, 4.78 ± 0.065; to YWFVGTPCAVRVGWFSQPHR, 0.612 ± 0.45.
Consider TLGYKFWMGRYRVNSAYGFE, for which the amyloid nucleation score is -0.005 ± 0.61.
In the case of LYMILNGYTLGSCFTVRDSF it was 4.99 ± 0.078; in that of ILFGFSLPGSCDNWDRDAKG, -1.15 ± 0.78.
WQYFFGMYNPSGGRRPGISG returned an amyloid nucleation score of -0.373 ± 1.
To LMFMLRYPLHASWLGSTHVY belongs 0.422 ± 0.44.
In the case of SITMELVYLPYQFMKSRRSW it was 4.35 ± 0.067; in that of SCLTDQDERPGLWELSCRYM, 1.1 ± 0.34.
With LLRILANQLKYYETTLCVGG, the amyloid nucleation score was -0.27 ± 1.1.
In the case of YNFDYTLMNYPLKAVPSEW it was 8.286 ± 0.053.
Regarding WPNFV, the amyloid nucleation score is -0.995 ± 0.76.
To NLSVHAENLDNNRSGAEV belongs -0.102 ± 0.76; to FWVLDSSADYRAS, 5.62 ± 0.075.
To VTAAIIVFCNGVLVRWTFIM belongs -0.99 ± 1; to YLLFTMRNLLILGRQGRSSL, -0.905 ± 0.45; to HDRIFSIKSWWCRSIWEVGV, -1.79 ± 0.78.
In the case of FFFVFVGDVR it was 2.08 ± 0.15; in that of EMVQVVSAQGKTKL, 8.461 ± 0.061; in that of MYLVYHYLSVRAFLFMSTMV, -0.39 ± 0.61.
For MGLSAVQVFSRRCSFSGKWC, the amyloid nucleation score entry was “inactive”.
To LFLGLFKLCNLASFMLWSWF belongs -0.627 ± 1; to FAHAIVSHDWDQRVRGWSGC, 0.836 ± 0.41.
To FVNQPKVRYLVSCYFMANLP belongs 0.016 ± 0.54; to TVIGLLIIVVGSYDVCSNVW, 6.163 ± 0.041.
In the case of KYVFGKTYPRY it was “inactive”; in that of KMMLSTRSQYPS, 0.489 ± 0.36.
For KVANRYIK, the amyloid nucleation score stood at 0.136 ± 0.32.
To DLEYF belongs -1.56 ± 0.54.
In turn, ESIRAGLRRSRLWNRGFGES had an amyloid nucleation score of 0.738 ± 0.27.
In the case of YGMKTGVNIFVVDVEMVKRS it was 5.93 ± 0.068; in that of LNRDFMVHLSCGTWPSARKW, 0.067 ± 0.5; in that of MRRSLFMCILVYDSWLYFSV, 3.15 ± 0.17.
In the case of YWGSFGDKLKLLNMCPLSLD it was “inactive”; in that of GWWNHGSSMGYFERVSSTFW, “inactive”.
In the case of IGLNTYTMF it was 0.282 ± 0.49; in that of GASFMSRNIRTWMTMWCDLK, 0.012 ± 0.23.
DAEIMMCYCKFSGFGSITWR had an amyloid nucleation score of 0.143 ± 0.5.
YLNGLTYWDIMLPWAII came in with an amyloid nucleation score of -0.324 ± 1.1.
In the case of LVNSKYDLGSSGSFDNRFAC it was -0.242 ± 0.63; in that of MNMSEMSAYHFLFSGGSKLR, -0.21 ± 0.44; in that of LCHYGCMVRESNLEYCPSME, 0.381 ± 0.48.
To GRNPVFWWQVLVATSRLNGQ belongs 1.05 ± 0.32.
To ICWRHTGIICKAGSNRSH belongs “inactive”; to SAGVEAREMRTSYLGSSEVG, 1.28 ± 0.32.
With TVILV, the amyloid nucleation score result is “inactive”.
As for YGRLECISWCPISIHCGGAR, the amyloid nucleation score stood at 3.47 ± 0.11.
In the case of RGMWRCHNG it was 1.49 ± 0.37; in that of DYRMCI, 0.926 ± 0.48.
In the case of YLGAGPSNILCHPFISAGSN it was “inactive”.
To LVKCRGATCLIVTSDRLLYV belongs “inactive”; to IMPVMLERTGLSGLMCNGWG, -0.315 ± 0.65.
As for TCVVMAKGKLVVPVQEYPCV, the amyloid nucleation score amounted to 2.62 ± 0.11.
To ILRCICRNILSSSRVRCSYH belongs “inactive”; to RGVDYVLSCL, -1.21 ± 0.61.
As to SGRTGIGWYLFCRPYPIVYA, the amyloid nucleation score was determined as 0.277 ± 0.39.
In turn, LVRGMDFHLNLDEKFFSATL came in with an amyloid nucleation score of -1.05 ± 0.56.
In the case of PKQDTA it was -0.967 ± 0.36.
For the substance RFKWK, the amyloid nucleation score turned out to be 3.67 ± 0.11.
Regarding TVSHDTGFGRNFFHVLLLS, the amyloid nucleation score was -0.012 ± 1.1.
To HLWFLCRSYGGVLKFHTESV belongs 1.03 ± 0.43; to PYQLRVSLTLMLISGSLDIY, 0.47 ± 0.5; to SGGLLKRWYRVDLGVVRYLY, “inactive”.
To VPSQASGTRACKHNWTVWLE belongs 1.33 ± 0.25.
Turning to FVRVCLSVIRYFTVTPGFKD, the amyloid nucleation score entry is “inactive”.
To FVYWFKYT belongs -1.2 ± 1.1.
LLFLAG showed an amyloid nucleation score of -0.358 ± 0.79.
To KTDRLTKGTATFKRMTEI belongs “inactive”; to ILKGNNSS, -1.2 ± 0.62; to SRFCSIIITMNVNHLPV, 5.79 ± 0.068.
In the case of TQSWDEWSYGNITGSTSYRL it was 0.25 ± 0.23.
Turning to CSKLFSRGPGLAFFQFFI, the amyloid nucleation score result was “inactive”.
DSCCMSYSRQNCTY registered an amyloid nucleation score of 0.218 ± 0.8.
To ICGGTSESGRYRKAGQGV belongs 1.07 ± 0.15.
In turn, CHSNKSCRSHIEEI gave an amyloid nucleation score of -0.377 ± 0.5.
Turning to YCVSPELDWTSIARGHTFNV, the amyloid nucleation score is -0.509 ± 1.1.
DLSSALRAMRSYSHLSTVGI: the amyloid nucleation score result was “inactive”.
In the case of RHKFAMMACVTYNGDVGVMT it was 1.14 ± 0.21; in that of GVGHFFLIQINKMCPHMRMA, 2.98 ± 0.13; in that of FFGAFGPRWGNYENITLCSY, “inactive”.
Consider DSGEPWILMFLDGYLSAMRL, for which the amyloid nucleation score was -0.513 ± 0.61.
To MHPVANSGNSEHMFSMLY belongs 3.48 ± 0.09; to WVDIPFW, -0.83 ± 1.1; to SGTWMGAATY, 3.62 ± 0.11.
In the case of ISFMQGDCRWHQVNSLQRIM it was -0.94 ± 0.54; in that of GCMTMTWMTNYLSFHNDTFT, 4.26 ± 0.065.
In the case of FSSRNFNLCRKTYWWCDSYQ it was -0.066 ± 1; in that of VVAVVPYFN, -0.202 ± 1.1; in that of LAYRKVLCMYSVSHSYTRAC, “inactive”.
For the substance QCLHSWDWLKSWFVFVGRGE, the amyloid nucleation score amounted to 3.88 ± 0.066.
In the case of RFGGSVYARGERL it was -0.159 ± 0.46; in that of DRWEPKLI, -0.516 ± 0.23.
To AAVTFSISYFIKTLHLENSS belongs 0.169 ± 0.28.
To HSRHHWYPSWQFWMLRPQNC belongs 1.4 ± 0.43; to GNVGTRPQINTGSVCYMSCI, 4.6 ± 0.057; to LWYGWCKRLYFVRCHYRVSM, -0.543 ± 0.55.
As for YKWVVPDWSWVLEMALSLPT, the amyloid nucleation score stood at 0.346 ± 0.5.
To RSTLPGRRFFIGNILYN belongs -0.578 ± 0.78.
To QLYKRSE belongs 0.256 ± 0.27; to LTTSFANAWHFNFLGRPLH, 2.18 ± 0.18; to LESHLVMRYS, -0.307 ± 0.48.
ISHISDL showed an amyloid nucleation score of 4.61 ± 0.072.
In the case of VMFVTSV it was 0.201 ± 0.29; in that of MKGEMF, -0.345 ± 0.28.
In the case of VTGDMTLFAWNLMGA it was 0.625 ± 0.43; in that of FGSLTMEEFGDGDVVSNNKG, -0.956 ± 0.31; in that of KNSWAAVPRSEEYCREVIGH, 0.482 ± 0.56.
DIVQIWCWFRGC had an amyloid nucleation score of 10.25 ± 0.029.
